Ends that are not written are not given here. fatty chain = not defined here

Chain of Mouse GLP-1R (mouse) (O35659 22-463): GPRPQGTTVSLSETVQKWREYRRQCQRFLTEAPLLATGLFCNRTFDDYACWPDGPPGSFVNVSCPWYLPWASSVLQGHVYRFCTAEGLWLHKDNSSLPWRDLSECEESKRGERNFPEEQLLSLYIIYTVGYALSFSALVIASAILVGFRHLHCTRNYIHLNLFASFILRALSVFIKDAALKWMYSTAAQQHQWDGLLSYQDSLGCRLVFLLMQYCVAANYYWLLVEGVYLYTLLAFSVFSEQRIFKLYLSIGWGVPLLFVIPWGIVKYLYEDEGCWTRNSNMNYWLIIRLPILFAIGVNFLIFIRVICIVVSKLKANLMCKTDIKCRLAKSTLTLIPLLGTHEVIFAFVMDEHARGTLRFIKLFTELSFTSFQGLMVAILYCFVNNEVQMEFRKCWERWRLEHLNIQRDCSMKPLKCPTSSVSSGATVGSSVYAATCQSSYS

In the first test the target is Human GLP-1R (human) (UniProt P43220).
Chain of Human GLP-1R (human) (P43220 24-463): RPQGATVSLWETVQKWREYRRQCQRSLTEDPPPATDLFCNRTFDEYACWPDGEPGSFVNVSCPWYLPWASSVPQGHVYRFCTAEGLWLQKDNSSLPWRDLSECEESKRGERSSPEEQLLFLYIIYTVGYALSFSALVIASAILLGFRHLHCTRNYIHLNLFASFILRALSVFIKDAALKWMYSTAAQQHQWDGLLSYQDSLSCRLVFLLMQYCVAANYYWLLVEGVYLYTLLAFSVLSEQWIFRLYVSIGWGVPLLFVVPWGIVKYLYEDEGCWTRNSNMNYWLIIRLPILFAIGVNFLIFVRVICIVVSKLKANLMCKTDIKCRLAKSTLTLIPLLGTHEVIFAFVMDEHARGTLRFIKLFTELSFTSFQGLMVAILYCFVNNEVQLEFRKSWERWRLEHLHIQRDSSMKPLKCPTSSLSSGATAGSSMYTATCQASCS
Assay: not given
In the case of FFYSSPSAYLK(fatty chain)TGGPSSGAPPPS (reading uncertain; also: fatty chain not given here) [PEP19], the EC50 (nM), Human GLP-1R activation, in vitro cell assay worked out at 0.152 nM and the Emax (%), Human GLP-1R activation, in vitro cell assay was 89%.
On the same counts, the results for FFYSSPSAYKETGGPSSGAPPPS [PEP14] are 0.051 nM and 105%.
On the same counts, the results for FFYSSPSAK(fatty chain)LETGGPSSGAPPPS (reading uncertain; also: fatty chain not given here) [PEP17] are 0.412 nM and 79%.
On the same counts, the results for FFYSSPSAYLKTGGPSSGAPPPS [PEP15] are 0.451 nM and 78%.
FFYSSPSAYLEK(fatty chain)GGPSSGAPPPS (reading uncertain; also: fatty chain not given here) [PEP20] yielded an EC50 (nM), Human GLP-1R activation, in vitro cell assay of 0.062 nM and an Emax (%), Human GLP-1R activation, in vitro cell assay of 98%.
In the same order, the values of FFYSSPSAYK(fatty chain)ETGGPSSGAPPPS (reading uncertain; also: fatty chain not given here) [PEP18] are 0.391 nM and 78%.
On the same counts, the results for FFYSSPSAKLETGGPSSGAPPPS [PEP13] are 0.064 nM and 96%.
In the same order, the values of FFYSSPSAYLEKGGPSSGAPPPS [PEP16] are 0.111 nM and 92%.

The next test has as its target Mouse GLP-1R (mouse) (UniProt O35659).
Assay: not given
FFYSSPSAYLK(fatty chain)TGGPSSGAPPPS (reading uncertain; also: fatty chain not given here) [PEP19] yielded an EC50 (nM), Mouse GLP-1R activation, in vitro cell assay of 0.212 nM and an Emax (%), Mouse GLP-1R activation, in vitro cell assay of 83%.
As to FFYSSPSAYKETGGPSSGAPPPS [PEP14], the EC50 (nM), Mouse GLP-1R activation, in vitro cell assay amounted to 0.034 nM and the Emax (%), Mouse GLP-1R activation, in vitro cell assay was determined as 150%.
FFYSSPSAK(fatty chain)LETGGPSSGAPPPS (reading uncertain; also: fatty chain not given here) [PEP17]: the EC50 (nM), Mouse GLP-1R activation, in vitro cell assay was 0.678 nM and the Emax (%), Mouse GLP-1R activation, in vitro cell assay was determined as 68%.
In the same order, the values of FFYSSPSAYLKTGGPSSGAPPPS [PEP15] are 0.457 nM and 73%.
In the same order, the values of FFYSSPSAYLEK(fatty chain)GGPSSGAPPPS (reading uncertain; also: fatty chain not given here) [PEP20] are 0.051 nM and 99%.
On the same counts, the results for FFYSSPSAYK(fatty chain)ETGGPSSGAPPPS (reading uncertain; also: fatty chain not given here) [PEP18] are 0.351 nM and 78%.
In turn, FFYSSPSAKLETGGPSSGAPPPS [PEP13] showed an EC50 (nM), Mouse GLP-1R activation, in vitro cell assay of 0.051 nM and an Emax (%), Mouse GLP-1R activation, in vitro cell assay of 110%.
FFYSSPSAYLEKGGPSSGAPPPS [PEP16] registered an EC50 (nM), Mouse GLP-1R activation, in vitro cell assay of 0.101 nM and an Emax (%), Mouse GLP-1R activation, in vitro cell assay of 93%.

The target in the next test is Glucagon-like peptide-1 receptor extracellular domain. As to the kind of experiment: SPR; Biacore 8K, according to the user's manual; who was immobilised and the conditions are not stated.
As a reminder, the Kd is the concentration at which binding is half-saturated. Higher therefore signals weaker binding. In turn, FFYSSPSAYLK(fatty chain)TGGPSSGAPPPS (reading uncertain; also: fatty chain not given here) [PEP19] returned a dissociation constant Kd of 91 nM.
On the same count and under the same terms, next, FFYSSPSAYKETGGPSSGAPPPS [PEP14]: 53 nM; FFYSSPSAK(fatty chain)LETGGPSSGAPPPS (reading uncertain; also: fatty chain not given here) [PEP17]: 158 nM.
On the same count and under the same terms, to FFYSSPSAYLKTGGPSSGAPPPS [PEP15] belongs 33 nM; to FFYSSPSAYLEK(fatty chain)GGPSSGAPPPS (reading uncertain; also: fatty chain not given here) [PEP20], 25 nM; to FFYSSPSAYK(fatty chain)ETGGPSSGAPPPS (reading uncertain; also: fatty chain not given here) [PEP18], 62 nM.
Still for that read-out and setting: to FFYSSPSAKLETGGPSSGAPPPS [PEP13] belongs 98 nM.
The molecule FFYSSPSAYLEKGGPSSGAPPPS [PEP16] gave a dissociation constant (Kd) of 23 nM.
The same measure, in the same setting: next, KQYSSPTAWLVGGPSSGAPPPS [PEP09]: 253 nM.

A further test has the same target. The test is described as above. The source holds these as a separate data set.
FFYSSPSAYLEKGGPSSGAPPPS [PEP16] returned a dissociation constant (Kd) of 25 nM.
